These results are taken from paper PMC7266957.

Data set [1] has as its system Type I-Fv Cascade (Cas5fv, His-Cas7fv, Cas6f, crRNA spacer4) (Shewanella putrefaciens CN-32). In words: BLI. As to conditions: BLI buffer: SEC buffer (composition in Supplementary Table II, not in material) + 0.1 uM BSA + 0.01% Triton X-100, 100 nM biotinylated oligonucleotide loaded ….
Data set [2] deals with Type I-F Cascade (Cas8f, Cas5f, His-Cas7f, Cas6f, crRNA) (Shewanella baltica OS195). The data set can be described thus: BLI.

pKd: −log10 of the molar value.

As usually defined, the pKd is −log10 of the Kd, conventionally taken in molar units. Take “CGCCGGTTATAGGTTTGCGCGTCTTGCTGGGCGATAGGACGTGGGATATCTTTTTGATATCCCACGTCCTATCGCCCAGCAAGACGCGCAAACCTATAACCGGCG (double strand) [Complementary (GG PAM)]”: the pKd in data set [1] is 7.33; in data set [2] (BLI buffer: SEC buffer (composition in Supplementary Table II, not in material) + 0.1 uM BSA + 0.01% Triton X-100, 100 nM biotinylated oligonucleotide loaded …) it was 7.00. In addition, in data set [2] (BLI buffer: SEC buffer (composition in Supplementary Table II, not in material) + 0.1 uM BSA + 0.01% Triton X-100, 100 nM biotinylated oligonucleotide loaded …, scale: fold reduction of equilibrium binding level), the binding signal was determined as 5.
